# Residue numbers refer to the chain shown, from its start. Names and notes keep the numbering of the source.
# B1: F169C (protein)
# chain: MQLRNPELHLGCALALRFLALVSWDIPGARALDNGLARTPTMGWLHWERFMCNLDCQEEPDSCISEKLFMEMAELMVSEGWKDAGYEYLCIDDCWMAPQRDSEGRLQADPQRFPHGIRQLANYVHSKGLKLGIYADVGNKTCAGFPGSFGYYDIDAQTFADWGVDLLKCDGCYCDSLENLADGYKHMSLALNRTGRSIVYSCEWPLYMWPFQKPNYTEIRQYCNHWRNFADIDDSWKSIKSILDWTSFNQERIVDVAGPGGWNDPDMLVIGNFGLSWNQQVTQMALWAIMAAPLFMSNDLRHISPQAKALLQDKDVIAINQDPLGKQGYQLRQGDNFEVWERPLSGLAWAVAMINRQEIGGPRSYTIAVASLGKGVACNPACFITQLLPVKRKLGFYEWTSRLRSHINPTGTVLLQLENTMQMSLKDLL
# B2: F169L (protein)
# chain: B1 chain with C169L
# B3: F169V (protein)
# chain: B1 chain with C169V
# B4: F169Y (protein)
# chain: B1 chain with C169Y
# B5: G171A (protein)
# chain: B1 chain with C169F, G171A
# B6: G171V (protein)
# chain: B1 chain with C169F, G171V
# B7: Y173C (protein)
# chain: B1 chain with C169F, Y173C
# B8: Y173F (protein)
# chain: B1 chain with C169F, Y173F
# B9: Y173H (protein)
# chain: B1 chain with C169F, Y173H
# B10: Y173S (protein)
# chain: B1 chain with C169F, Y173S
# System: mutant form of α-Gal A expressed in HEK-293 cells
# Test: HEK assay (GLP HEK / Migalastat Amenability Assay): α-Gal A activity in lysates of transiently transfected HEK-293 cells incubated with or without 10 μM migalastat
# Format: cell-based, human
# Conditions: 10 μM migalastat versus baseline
# Procedure, shortened: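 HEK-293 cells transiently transfected with mutant α-Gal A and incubated with or without 10 μM migalastat; lysate activity given as nmol free 4-MU released per mg protein per hour. Values are mean±SEM.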
row,Molecule,Absolute increase (% WT)
1,B1,26.9
2,B2,34.5
3,B3,42.8
4,B4,30.2
5,B5,26.4
6,B6,6.4
7,B7,29.3
8,B8,21.2
9,B9,18.3
10,B10,14.8

# Same assay, conditions: 10 μM migalastat α-Gal A activity relative to baseline
row,Molecule,Relative increase
1,B1,2.4
2,B2,1.7
3,B3,5.6
4,B4,1.6
5,B5,1.4
6,B6,3.6
7,B7,1.6
8,B8,1.3
9,B9,1.3
10,B10,1.2

# Same assay, conditions: 10 μM migalastat, 5 days; percentage of baseline wild-type α-Gal A activity; mean ± SEM
row,Molecule,10 μM migalastat α-Gal A activity (% WT)
1,B1,44.9 ± 2.3
2,B2,82.3 ± 3.2
3,B3,53 ± 2.1
4,B4,75.5 ± 3.6
5,B5,84 ± 5.7
6,B6,9.2 ± 0.9
7,B7,80.5 ± 3.3
8,B8,97.7 ± 4.7
9,B9,80.2 ± 4.6
10,B10,76.2 ± 3.3

# Same assay, conditions: absence of migalastat; percentage of baseline wild-type α-Gal A activity; mean ± SEM
row,Molecule,Baseline α-Gal A activity (% WT)
1,B1,18.1 ± 2
2,B2,47.8 ± 2.9
3,B3,10.2 ± 0.9
4,B4,45.3 ± 2.8
5,B5,57.6 ± 2.8
6,B6,2.8 ± 0.2
7,B7,51.1 ± 3.6
8,B8,76.5 ± 4.2
9,B9,61.9 ± 3.4
10,B10,61.4 ± 3.3

# Same assay, conditions: lysates of HEK-293 cells transfected with the mutant form, incubated 5 days in the absence of migalastat; mean ± SEM
row,Molecule,Baseline α-Gal A activity [nmol/mg/h]
1,B1,6861 ± 977
2,B2,15588 ± 1463
3,B3,2870 ± 239
4,B4,14358 ± 1768
5,B5,19081 ± 1801
6,B6,856 ± 62
7,B7,17669 ± 1240
8,B8,26479 ± 1523
9,B9,21234 ± 879
10,B10,21751 ± 1625

# Same assay, conditions: lysates of HEK-293 cells transfected with the mutant form, incubated 5 days with 10 μM migalastat; mean ± SEM
row,Molecule,10 μM migalastat α-Gal A activity [nmol/mg/h]
1,B1,16396 ± 1516
2,B2,26527 ± 1806
3,B3,16145 ± 1680
4,B4,23459 ± 2391
5,B5,27514 ± 2486
6,B6,3111 ± 411
7,B7,27924 ± 1225
8,B8,33158 ± 657
9,B9,27455 ± 1147
10,B10,26270 ± 994

# Source: patent publication US11833164B2, “Methods of treating Fabry disease in patients having a mutation in the GLA gene” (Amicus Therapeutics, Inc., priority 2019, dated 2023)
